± gives the half width of the 95% confidence interval.
Tests used:
[1] = folding stability dG unfold from chymotrypsin proteolysis; higher = more stable
In short: (§1)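 Mini-proteins designed to be under 80 residues and free of cysteine were carried in a PA-tagged cDNA display construct and digested with trypsin and with chymotrypsin. Each protease was applied at 11 threefold-diluted concentrations, alongside a no-protease condition, before sequencing. K50 came from Bayesian fitting of the sequencing counts, and unfolding free energy was obtained by comparing it with a sequence-predicted unfolded-state K50 and a shared folded-state K50, for each protease separately or for both together. Designs were retained only if their AlphaFold2 dimer inter-PAE exceeded 15.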

[2] = folding stability dG unfold from trypsin proteolysis; higher = more stable
In short: as §1

[3] = folding stability dG unfold (combined trypsin and chymotrypsin); higher = more stable
In short: as §1

Sequence	folding stability dG unfold [1] [kcal/mol]	folding stability dG unfold [2] [kcal/mol]	folding stability dG unfold [3] [kcal/mol]
SAGGSADKITVRVMPSPDGMYRVKIWHPGKKREYWMNPDDPDKMLEEFADEINPDRPIKVEVEPYKSAGGSA [r15_925_TrROS]	0.913 ± 0.16	-0.919 ± 0.87	0.467 ± 0.18
SAGGKMSLEDIKEVKITKISEEELKKNGTIKIEIYNKNGKLIKTIEIKIKPVKVKDKDGKEKTLEELKSAGG [r13_864_TrROS_Hall]	1.49 ± 0.031	0.897 ± 0.042	1.29 ± 0.11
SEAEVEVEVLPGPDAVVVRVRLPGRDEVVELRVLDPHPGEGRVLVAVSPGDDDTVVVRDLSPEDIKALLASA [r9_1221_TrMRF]	0.973 ± 0.055	1.843 ± 0.018	1.5 ± 0.056
SAKYYFITVEIYMRTGGGPRKMDITVMIPPEEMPPEDVKEIAKEIADWLAEHHPGFEVKVTIIPPDDMKSAG [r14_723_TrROS]	4.07 ± 0.16	2.39 ± 0.092	3.74 ± 0.47
SAGGSAGGMLVFVVKKIKPGMSDEQKKALEKLVKPGDVIELSPEEIERLAKLPWIQEIKVYPLPSAGGSAGG [r6_381_TrROS_Hall]	0.361 ± 0.34	0.641 ± 0.12	0.548 ± 0.2
SGEFKPIATIDAKDGKPEAIIDSVKELLPDSGPVLVVLDLPDGPPKVNVIDPSTGKVREFVPGGNITIVPSA [r9_853_TrMRF]	1.39 ± 0.021	0.355 ± 0.037	1.03 ± 0.056
SLEEKIKEAIENSPPNSEVIVPLPDDRTVKITVTPETVTGDGRRRLRIKVTITIYDPSGTKLGEKVLEIPLS [r1_386_JUSTAS]	4.12 ± 0.17	2.66 ± 0.052	3.69 ± 0.16
SAGGMPVTTTPRTVELPDRRVEVIDRTFPNGPPRTTVVVRDPAGNLVATREFTGPEWEEWLRAEGALLSAGG [r19_90_JUSTAS]	1.06 ± 0.035	-0.606 ± 0.17	0.707 ± 0.048
SAGGSAMTVVKVTLKSPSGTTTVTLPAEEWERFLAAPEVSKTWTLTEVVEEEEPPPELDPEAVELGSAGGSA [r15_460_JUSTAS]	1.12 ± 0.15	0.626 ± 0.11	0.864 ± 0.3
SAGGGNIRPVRIERLPDGSLLIVLVADSPDDAFSDESTLDALPGEEELLEARYDPSTGRVLLVRRFRPSAGG [r13_413_TrMRF]	1.71 ± 0.064	1.33 ± 0.055	1.55 ± 0.071
SAAVITLETENVTATSTLLEDGSVLVDVVEFYEDGYVSVVKAVIGPDGEIKVVERVVFPVPPPVPPPDASAG [r14_42_TrMRF]	2.3 ± 0.094	2.49 ± 0.094	2.36 ± 0.18
SKIKILIAMTEDEIKKLAEELKKKGYEIKIKVKKIEKKKVKVKNKDGKTYEKEVVLVEVEIEIVPKGVKPSA [r9_991_TrROS_Hall]	3.98 ± 0.32	2.73 ± 0.43	3.27 ± 0.73
SAGGSAGGKKIKIEIIYDKENNKLYIYVVDENTKKVYRYEFNKNGKLIKVEPVKEVKPGEVIPLSAGGSAGG [r6_148_TrROS_Hall]	2.49 ± 0.16	1.96 ± 0.15	2.32 ± 0.22
SAGGSAGGSFRIKEIEYKPPKGMIEVEIEFPNGRPIKIHINPDEGWDPIYFGGKPIFPIRIEPSAGGSAGGS [r12_789_TrROS]	0.859 ± 0.13	-0.206 ± 0.1	0.534 ± 0.11
SAGGSTITTDVPEARELLEELVKAGIKNIKVTVELDGSTVTLEVPPDELEKLVEEIPPEAKVTLEASSAGGS [r16_636_JUSTAS]	1.44 ± 0.041	0.442 ± 0.019	1.12 ± 0.062
SAGGSAGGSRIIFRIPPEFRENMPIEEIVEEFLPPGMPVEIEWERTPDPWYVTVDIEIPPGQLSAGGSAGGS [r12_716_TrROS]	0.325 ± 0.33	0.364 ± 0.16	0.334 ± 0.27
SAGGSAGGGPDPSLPPPEVIEVVLPPDTLFRPPGGGYLSPEEVVELAKELEEREGIKATVTIRPSAGGSAGG [r6_162_JUSTAS]	0.588 ± 0.095	1 ± 0.09	0.823 ± 0.15
SAGGSAGGSAGNIILPFEIESIDIEEETAIDPETGEPVKVKKILIRLKGTGKIIEISFTEKSAGGSAGGSAG [r3_424_TrMRF]	3.01 ± 0.11	2.76 ± 0.23	2.88 ± 0.26
SAGGSAGGSAKKKKKKKKYKPKPVKIFKIKLKLKLEKTKDGLKLKIEEIEIEEIATLEKGLSAGGSAGGSAG [r3_397_TrROS_Hall]	2.72 ± 0.1	1.88 ± 0.12	2.43 ± 0.44
SAGGDFKPPVPTTQVLTFTIETSPEDPEKAKEIAEKLKKELLEKGAVKIEVTLDPEPGTVTVTVTLVKLSAG [r5_512_JUSTAS]	2.92 ± 0.063	1.95 ± 0.069	2.51 ± 0.19
SSPANITTTTTSSPLNLETFDPKTGKKKRINYTLTTETVTFPGGEVVTTTVLKDASTGKVTTLSTTVTPTSA [r9_402_JUSTAS]	1.22 ± 0.14	0.773 ± 0.081	1.08 ± 0.12

Sequence	folding stability dG unfold [1] [kcal/mol]	folding stability dG unfold [2] [kcal/mol]	folding stability dG unfold [3] [kcal/mol]
SAGGSAGGSAGGMTITLVDPENGVKEAEIEEVDGKLRITVVNEETGEKEEIELPLEELLSAGGSAGGSAGGS [r10_772_TrROS_Hall]	0.288 ± 0.14	0.648 ± 0.063	0.477 ± 0.16
SAGGSGKVIGFSFEVETPEEAEGLFKENRPDLDVKILEVKPEEGYVRLVAVDPDGKPHVFVVPIVGSAGGSA [r2_201_TrMRF]	1.34 ± 0.1	0.743 ± 0.055	1.11 ± 0.091
SAGGSAGGSAKKITVEITIEVNGKKYKVKAEIELDEETKTLTIKVTFPDGTEFEFTFKLPEESAGGSAGGSA [r18_239_TrROS_Hall]	5.72 ± 0.13	3.86 ± 0.22	5.76 ± 0.41
SAGGSAGGPPPYYMVEIEIERRNPKNGKKQKFPVTVIMPPKEAEKIKDELEEWGYEIKVDVHPISAGGSAGG [r6_97_TrROS]	0.393 ± 0.066	0.856 ± 0.15	0.74 ± 0.18
SAGGSAGGSAGGSEEEIKKLAAEGGSFTATIPVVTPDGKPVEKTVTVEVKTDPKTGKLVSAGGSAGGSAGGS [r10_346_JUSTAS]	0.906 ± 0.025	0.482 ± 0.043	0.791 ± 0.083
SAGGSTVSVVPFPDYLLVVTTDVRRTPVPDTDTVSTELTTTVTVIPLPDVPPPVLPFLDADGNPYYASAGGS [r8_46_TrMRF]	0.522 ± 0.11	1.01 ± 0.093	0.694 ± 0.093
SAPKRYYIKIEIYDNGKKQEITIPIGATIKNPGGKEYTYPVDSPEDLEEALNDLFPPGFPIKIDDVHPPSAG [r14_41_TrROS]	1.21 ± 0.17	0.517 ± 0.042	0.973 ± 0.11
SAGGSEILKKLFPNVKKIEIEVEEVEVKYSEEEKKANPNKKVKVEVKVKVKIKIKIELEFDKNGKLSAGGSA [r2_404_TrROS_Hall]	1.92 ± 0.19	3.64 ± 0.19	3.09 ± 0.61
SAGGSGTESKEYPDSKVTVTPVPLPLGDGAPVLRVTTVPKLPNGEPVTTVTLVDPDSDVVVTEETLSAGGSA [r2_484_JUSTAS]	0.925 ± 0.012	-0.0208 ± 0.028	0.598 ± 0.044
SAGGLLVVLPPDLTPEELREKALELAELARKAGDFEVERIELVRDEETDRPYAVLVIRDPRTGKILVASAGG [r13_669_TrMRF]	1.05 ± 0.062	1.39 ± 0.014	1.23 ± 0.042
SAGGSAGGSAKPNKKFKFELVEVKEIEIYDKETNEKVYKISVAKVRLEDGSLLTFISIEEKSAGGSAGGSAG [r3_166_TrROS_Hall]	3.78 ± 0.059	2.34 ± 0.085	3.19 ± 0.22
SAGKVEIVVTYPDGSKAVIDSDNPLVFTITDPDGNSSTISGTGFDEALLKIVELLKEKTGKPVEKVEIKSAG [r5_119_TrMRF]	2.168 ± 0.021	0.377 ± 0.098	1.76 ± 0.14
SAGGSAPPPNTIPIRVKIEDKNGKWETITFPVKSGDDAKDFLNDNFPNVKVEYDPGAGWVTIEVPKSAGGSA [r15_313_TrROS]	0.2 ± 0.094	-0.868 ± 0.29	-0.0942 ± 0.44
SAGGSAGGSAEPPEPEVVAVTVEITEEDGELTITVTNEDTGEKYTFTLKNVEVKPGDTLLIRSAGGSAGGSA [r18_89_TrROS_Hall]	1.77 ± 0.34	0.402 ± 0.26	1.21 ± 0.56
SAGGMPPVVLEYEIDIKPDPNETLEDVLEKAEEFVEELKEAFPELDLKEVKVEVDPEKGKVKITVVFPSAGG [r13_1011_TrMRF]	1.95 ± 0.14	1.77 ± 0.11	1.92 ± 0.12
SMKTKTVTLDLSPEDPEAARAAVEAAIAEARAADPDTEVTVTVTISPEHPELLAEIEALAAERGVSLVLGSA [r9_1202_JUSTAS]	2.84 ± 0.06	2.74 ± 0.058	2.81 ± 0.097
SAGGMRIYIPPELPEEKVEEIREEAEEEFPVEVTLERFPEPGYVVLEFEGEEEELYRRIEEKIREKGSAGGS [r16_227_TrMRF]	1.42 ± 0.35	1.17 ± 0.16	1.55 ± 0.41
SAGGSAGGSIRIIFPVDNPEQAENIAEEIAERFGIQIEDIEVEQVPNGMYIVTFEVKIPPEMISAGGSAGGS [r12_577_TrROS]	2.28 ± 0.036	2.41 ± 0.13	2.38 ± 0.096
SAGPSLEVEVERLPGPYVRITARYSRDVPVEVLVEELRAAAPVEVRVEEDPERDFVTVVAVLPLAPDAGSAG [r5_742_TrMRF]	1.46 ± 0.069	1.28 ± 0.031	1.46 ± 0.08
SAGMPVEIPLVIRLTRYRDLPDGPELAEVRELPLPLRADPSELDNPELLAFIREALEKLPDEIREVEIASAG [r5_849_TrMRF]	0.757 ± 0.11	-0.255 ± 0.27	0.479 ± 0.17
SAGFKIKIEPDKNMPPGQKPMTEEELKKIAKSIAKQMEQDPGNPGKEVKIEIPFYFPDGYWYRIEIEKSAGG [r19_132_TrROS]	0.647 ± 0.29	0.259 ± 0.19	0.506 ± 0.34

Reference: the supplement of paper PMC12764529
